The text below walks through data of a protein production outcome set (Wang et al. 2014).

A short description of this series: label from the status in PepcDB records.

With “MTFKRSLFFLLLLLSVATARAQIDVDRVITIGRNALYFNDYVVSIGYFNQVVGLRPWMAEPYFYRGIAKISLEDYTGAEADASACLQRNALIPKAYLLRGVARQNLGKIDSAIQDYRRGLELMPNDEGMLVNLTGVLTDSKRYAEAREGVAELLKFYPKSKQAHIALSAIELGEQDTVAAIRELNEVLRMDSLFAPAYSQMAMLHLKSKRNAEAMAALDKAIELEPSELSNYINRGVIRYQSNDLRGAMDDYSHVVRQKPNDKLARFNRALLRSYLGDVNNAIEDFDVVIRLEPENYHALYNRAILLTQINENRKAITDFDKVLGHYPDFVVGYYARSQAKKALGDTRGAERDYWRAFDIEKAAQSKTKKTKKSSSSTSTKETREDSDETIEKFNLLVVSEKSSEKRTRYSSRIRGRIQDNDVEVQPSPLFVLSYYEQSSSEEVPRVYYSEAIARFNDKKVLPKRLKPINREVALSQEQVAYHEQDITEISERTAGNADLCFRRALDYMLIQNLEQAIVDFDQAVELNKQFALAYFGRAIARAKLVEARQGASFIHQEAETVNAMTKALITTPRTNAMGVPAAAESPERKPAISDVDGELVMRDLNRTIELDPNFAYAYYNRAVLLARRGDTDAALSDYDRAIKAYPEFADAYFNRGLLLLSRGKAKEGIADLSRAGEYGLYKAYNIIKRMSTKS”, the protein production entry is given as “failed”.
Take “MTFPSVALVVVYVGGLVILGFGMAKIVYVPMALYFDWLYRSICARHRYSVLSDRPLVSVIVPGYNEAVVITGCVESILASRYLRLEVILVDDGSTDETASIMEGLAQQYDRVRFLSQANAGKGAALNCGIAAALGDILMFVDADGVFAPDTLIHMLEGFDDPKVGAVCGDDRPVNLDRLQTMMLAILSHVGTGLVRRALSLMNCLPIVSGNIGAFRSDLVRELGGFHEDTLGEDLELTWRVYKAGYRVRFQPKALVYAESPSTMGGLWRQRVRWSRGLLQTLRLHSGMLGSRRYGMFGAFLVFNAITMVLIPILQLVVLALLPFLYVAGMGPVPAEVLAILGWLGVFVSLALIVFSVGLNRSWRDLRFLWTLPLWPFYSVFVGLALASAIVKEIRGSPARWNKLQRTGIKSVTATHSVTSTDVSQRQEAHA”: the protein production entry was “failed”.
The result for “MTFSQMILNLQNYWQEQGCAIMQPYDMPAGAGTFHPATFLRSLGKKPWAAAYVAPSRRPTDGRYGENPNRLGAYYQFQVLIKPSPDNIQELYLKSLENLGFDLKSHDIRFVEDNWESPSLGAWGLGWEVWLDGMEVTQFTYFQQVGGIAVDLVSAEITYGLERIAMYLQNVDNVYDIVWSEFNGEKIKYADVHKQSEYEFSKYNFEVSDVKILNEQFENSYKECKNILEQGLALPAYDYCMLAAHTFNLLDARGAISVAQRQDYMLKIRELSKNCAEIYKKNLNEAE” reads “not failed”; that for “MTGEKIRSLRRDHKPSKEEGDLLEPGDEEAAAALGGTFTRSRIGKGGKACHKIFSNHHHRLQLKAAPASSNPPGAPALPLHNSSVTANSQSPALLAGTNPVAVVADGGSCPAHYPVHECVFKGDVRRLSSLIRTHNIGQKDNHGNTPLHLAVMLGNKECAHLLLAHNAPVKVKNAQGWSPLAEAISYGDRQMITALLRKLKQQSRESVEEKRPRLLKALKELGDFYLELHWDFQSWVPLLSRILPSDACKIYKQGINIRLDTTLIDFTDMKCQRGDLSFIFNGDAAPSESFVVLDNEQKVYQRIHHEESEMETEEEVDILMSSDIYSATLSTKSISFTRAQTGWLFREDKTERVGNFLADFYLVNGLVLESRKRREHLSEEDILRNKAIMESLSKGGNIMEQNFEPIRRQSLTPPPQNTITWEEYISAENGKAPHLGRELVCKESKKTFKATIAMSQEFPLGIELLLNVLEVVAPFKHFNKLREFVQMKLPPGFPVKLDIPVFPTITATVTFQEFRYDEFDGSIFTIPDDYKEDPSRFPDL”, “failed”.
In the case of “MTGKKTLSIVGASGYAGGEFLRLALSHPYLEVKQVTSRRFAGEPVHFVHPNLRGRTNLKFVPPEKLEPADILVLALPHGVFAREFDRYSALAPVLVDLSADFRLKDPELYRRYYGEHPRPDLLGRFVYAVPELYREALKGADWIAGAGCNATATLLGLYPLLKAGVLKPTPIFVTLLISTSAGGAEASPASHHPERAGSIRVYKPTGHRHTAEVVENLPGRPEVHLTAIATDRVRGILMTAQCFVQDGWSERDVWQAYREAYAGEPFIRLVKQKKGVHRYPDPRFVQGTNYADIGFELEEDTGRLVVMTAIDNLVKGTAGHALQALNVRMGWPETLGLDFPGLHP”, the protein production entry is given as “not failed”.
Turning to “MTGMRKTLKATLAEARAQVEAALKEEGFGILTEIDVAATLKAKLGLEKPPYLILGACNPNLAARALEALPEIGLLLPCNVVLREAEEGVEVLIQDPKEMFRVLPEATQRALAPVAEEARTRLSRALSRL”, the protein production result is “not failed”.
As to “MTGPTPTEAVDITVSVGGFKVGDQNYPINPKITFTNNTGQAIPGGTEFQFDIPVSAPDNAKDQSGGGLKVIASGHTRANNIGGLDGVMHRVSFSLPAWKDLPAGGTYELDMVYYLPISGPANYSVISGGKEFAFKFEQPDLPIGDLNAGTGGGGTTEPGSCDTAGLVTYPNLPQTDLEHHHHHH”, the protein production result was “failed”.
Consider “MTGRDLMLITGISPIILRFLFGGTAVVASRLVARSFGGRLGGVFAAFPAVYLAAVAGLSMEYEGSELLSVSEQLSRGALVGMSADICCALAASYLILKYGWKTGLSLSLLFWAVLAPVIYFTWF”, for which the protein production entry is listed as “failed”.
As for “MTGVLTADRPPKPAAPRRYTVALARDEDDVRAAQRLRHDVFAGEMGALLASPQPGHDVDAFDAYCDHLLVREETTGQVVGTYRLLPPERAAVAGRLYAESEFDLAALDPIRSSLVEVGRSCVHPDHRDGAVIGLVWAGIARYMTDRGHAWLAGCCSLPLADGGALAAGAWDRVRTKHLAPEEYRVRPLLPWVPRPAAPAARTELPALLRGYLRLGAWVCGEPAHDVDFGVADLYVLLPMNRVDPRYLRHFLSLAPA”, the protein production result was “failed”.
Regarding “MTHASILISVIIPAYNAAKFLPDAIASVEKQTFTDWELLIINDGSTDDTIEVVREHQKTSDCIYLINQTNQGVSAARNQGVAHSQGQIIAFLDADDQWLPDKLSQHWQHFQSNSRLGVSFAQVEILDQAGEPTGQVSTSRLNDLKPEYFLSENPTTTTSNWVIRKEVFTQVGGFCLDMSYSEDLEWLLRVSSTTDWQIQGINQVLTRYRTSSSGLSSNLYYMEAGWKQLVNRARIYAPQLVHNHFALAQAVHLRYLARRAFRLKLPARVGVDFITRALISDWRLLFHQPQRTFFTLLAVFGALVMERVFGLNTHRGSTAKAEPFRGSIP”, the protein production entry was “failed”.
Take “MTHPATVYSLSTRLLHWSMAFCFIGAIVLAYFVIWVLGHDHPQRLPVLNLHWVLGLLVGLLLVPRIVSRLRGPRLPAVPGTPLEHRLAHYAHLSLYALMLVMPLTGYVGTRLPTDFGLFVVPSFKDTALFAWISQTLNLSWEAFEKPFDAVHRVVGLWLSTSVVLLHALAAGYHQWVRRDGTLERMLGRRQRR”: the protein production result was “failed”.
Consider “MTHTITIVGLGNYGIDELPLGIYRFLEKESKVYARTLNHPVINTLKKEIEFESFDSIYEAHDRFEDVYEAIVTSLIELAQSEDIVYAVPGHPRVAETTTVKLLEYSHFNKDISVKVLGGKSFIDDIFEAVDVDPNDGFTLLDGTSLKESALNVRTNTVITQVYSVMIAADLKLTLMERYPDDFNVKIITGSHSDGAHVIECPLYEIDRYDDYFNNLTSLFIPKINEDTLLYQDFDYAVQTIDLLVDNEKGCPWDKVQTHDSLKRYLLEETFELFEAIDNEDDWHMIEELGDILLQVLLHSSIGKKEGYIDIKEIIESLNTKMIHRHPHIFGNAHVTSQEDLKDIWSRAKEKEGKVPRVKFEKVFADHFLKLYDKTKNRQFDEDDLKQFLQQGEKNS”, for which the protein production entry is listed as “failed”.
As for “MTIFVLSSLLAILLAVAIYNSEPSSYAHRSPTYGIGYVFVYIIAAFLFSFVIIYLGRKKKLRIFKVIYSIVVAYVIFYVFLILLSIFLYNVYAIFTVSIVVAIVFFYMILFRNEWYVTDLAGFFLSVGISSIWGITFGVWAAVAFLIAFEIYDYIAVYKTRHMISLARYAVDSDLPMLFVLPENSGFTMRGLSFDNRGDGNVLMIGFGDIALPSIMVVSSAIYGISHILFFTVLPLAGGLIGMAVLYFWNRDRPAPGLPYINTGTIAGFLIAFLAFRVF”, the protein production entry is “failed”.
